Measured values: patent US20250043319A1, “BIOSYNTHESIS OF CYCLOLAVANDULYL DERIVATIVES OF AROMATIC COMPOUNDS” (Invizyne Technologies, Inc., priority 2022, published 2025)

B1: AbPT: prenyltransferase, Accession: KPI30840.1, SEQ ID NO: 9 (protein, listed as Actinomyces sp.)
chain: MSGKANIQRVYSAVEEAADLLDIACSREQMWPTLTAFEDVLTDGAIVFNMVTSGGRIGDLSFDFTLPPSAGDPYELALAHGLVDETDHPVRALFSDIQARFPLQAYGVDHGITSGFHKTYAFFPLGDLQSVAELADIPSMPSGLSEHVTSFAAYGLDDKVSAIAIDYARRTWNVYFNGLSAPHVQRTAVLSMLSEFGLPEPSAQLLEFIETSSALYPTFGWDSSKIERISFSTRTTDPVALPARIEPKLEKFARSAPHVYEGERVLVYAGALSPSEEYYKLATYYQMTAAAHDRVRSAN
B2: AtaWTPT: prenyltransferase, Accession: AMB20850.1, SEQ ID NO: 17 (protein, listed as Aspergillus terreus)
chain: MLPPSDSKDPRPWQILSQALGFPNYDQELWWQNTAETLNRVLEQCDYSVHLQYKYLAFYHKYILPSLGPFRRPGVEPEYISGLSHGGHPLEISVKIDKSKTICRLGLQAIGPLAGTARDPLNSFGDRELLKNLATLLPHVDLRLFDHFNAQVGLDRAQCAVATTKLIKESHNIVCTSLDLKDGEVIPKVYFSTIPKGLVTETPLFDLTFAAIEQMEVYHKDAPLRTALSSLKDFLRPRVPTDASITPPLTGLIGVDCIDPMLSRLKVYLATFRMDLSLIRDYWTLGGLLTDAGTMKGLEMVETLAKTLKLGDEACETLDAERLPFGINYAMKPGTAELAPPQIYFPLLGINDGFIADALVEFFQYMGWEDQANRYKDELKAKFPNVDISQTKNVHRWLGVAYSETKGPSMNIYYDVVAGNVARV
B3: NphBM31s: engineered soluble variant of prenyltransferase NphB from Streptomyces sp. CL190, SEQ ID NO: 6 (protein)
chain: MSEAADVERVYAAIEEAAGLLGVACARDKIWPLLSTFQDTLVEGGSVVVFSMASGRHSTELDFSISVPPSHGDPYAIVVEKGLFPATGHPVDDLLADIQKHLPVSMFAIDGEVTGGFKKTYAFFPTDNMPGVAELAAIPSMPPAVAENAELFARYGLDKVQMTSMDYKKRQVNLYFSELSAQTLEAESVLALVRELGLHVPNELGLKFCKRSFSVYPTLNWDTSKIDRLCFSVISTDPTLVPSSDEGDIEKFHNYATKAPYAYVGEKRTLVYGLTLSPKEEYYKLGAVYHITDVQRKLLKAFDSLED
modifications: Synthetic polymer
B4: NapT9: prenyltransferase, Accession: ABS50490.1, SEQ ID NO: 14 (protein, listed as Streptomyces sp.)
chain: MSGATGAEKLYSAIEESARMVDAPFSRDKVWPTLSAFEGGFSDAGGVILSLQAGTHVPEMEYSAQVSPGISDPYARALASGILTETDHPVSTVLAEIVSLAPTSEHYIDCGIVGGFKKIYANFPHDQQTVAALAGLPSMPRAVGGNAEFFARHGLDRVALIGVDYVNKTINLYFQVSAATAGNLDQKTVSAMLHETGMSEPSDAMVAYACQAYRIYTTLSWDAQEILRIAFAPKPRRGIDPADLPARLEPRIEKFLRATPHKYPGALINATAAKWSPEREVLDLAAHYQVSAVQMKAIEAEEGQAS
B5: MzPT1: prenyltransferase, Accession: WP_135330628.1, SEQ ID NO: 18 (protein, listed as Streptomyces sp.)
chain: MSRTAEVERVYSAIEEAAGLLSAVCSRDNVWPVLDAFGDELAEAMIVFGGQAGDRHAGELDYSFTVPSSIGNPYPHALSRGLVTETDHPVGSVLSDIQGRWPIKEHFVDAGVVGGFKKLYAHFPDNMQKVSDIADIPSMPRAVAENAALFARYGLDQVAMIGVDYRHKTVSVYFHFGPDGRPEPSTIRALLSDLGMPEPDEPTLEFAHKSLRVNITLGWETGDVIRVAFAPPPVRGLDPSALPGQLTPRMEEFARVSPRAYAGGRVNMYAVKWMRGEEFHEVCTYYQLTPWYEKILTDAPKEQQG
B6: NphB: naturally occurring prenyltransferase from Streptomyces sp. CL190, Accession: 1ZB6_A, SEQ ID NO: 8 (protein, listed as Streptomyces sp.)
chain: MSEAADVERVYAAMEEAAGLLGVACARDKIYPLLSTFQDTLVEGGSVVVFSMASGRHSTELDFSISVPTSHGDPYATVVEKGLFPATGHPVDDLLADTQKHLPVSMFAIDGEVTGGFKKTYAFFPTDNMPGVAELSAIPSMPPAVAENAELFARYGLDKVQMTSMDYKKRQVNLYFSELSAQTLEAESVLALVRELGLHVPNELGLKFCKRSFSVYPTLNWETGKIDRLCFAVISNDPTLVPSSDEGDIEKFHNYATKAPYAYVGEKRTLVYGLTLSPKEEYYKLGAYYHITDVQRGLLKAFDSLED

Assays:
Type in all cases: biochemical
[1] = cell-free cyclolavandulylation activity screening of prenyltransferases, substrate resveratrol; details: cell-free reaction with CLDS and DMAPP (CLPP donor), 28° C., 48 hours, QTOF LC/MS, with vs without prenyltransferase
From the text: (§1) Genes encoding the following prenyltransferases were codon-optimized, synthesized, and cloned into the pET28a vector for protein expression and isolation/purification as described in Example 1. • NphB (Accession: 1ZB6_A) (SEQ ID NO: 8) • AbPT (Accession: KPI30840.1) (SEQ ID NO: 9) • SkPT (Accession: Q2L6E3.1) (SEQ ID NO: 10) • SvPT (Accession: WP_078899560.1) (SEQ ID NO: 11) • Sr1310PT (Accession: WP_057602682.1) (SEQ ID NO: 12) • NapT8 (Accession: ABS50461.1) (SEQ ID NO: 13) • NapT9 (Accession: ABS50490.1) (SEQ ID NO: 14) • Mcl23PT (Accession: AGH68908.1) (SEQ ID NO: 15) • CnqP3PT (Accession: WP_047018069.1) (SEQ ID NO: 16) • AtaWTPT (Accession: AMB20850.1) (SEQ ID NO: 17) • MzPT1 (Accession: WP_135330628.1) (SEQ ID NO: 18) • MzPT2 (Accession: WP_135330626.1) (SEQ ID NO: 19) B. Cell-Free Biosynthesis Reaction with CLPP and Various Aromatic Substrates
(§2) The cyclolavandulyl diphosphate synthase, CLDS was prepared as described in Example 1 and used in the synthesis of CLPP.
(§3) Stocks of the various aromatic compounds used as substrates for cyclolavandulylation activity screening were obtained from the following commercial sources: • Resveratrol (Fisher Scientific) 200 mM stock in DMSO • Luteolin (Fisher Scientific) 200 mM stock in DMSO • Naringenin (Fisher Scientific) 200 mM stock in DMSO • Tryptamine (Fisher Scientific) 200 mM stock in DMSO • Tryptophan (Fisher Scientific) 40 mM stock in water • Olivetolic acid (Toronto Research Chemicals) 200 mM stock in DMSO • Divarinic acid (Toronto Research Chemicals) 200 mM stock in DMSO • Phorolic acid (prepared in house) 200 mM stock in DMSO • Olivetol (Fisher Scientific) 200 mM stock in DMSO • Screening for cell-free biosynthesis was carried out as follows. 10 mM DMAPP, 5 mM MgCl2, 100 mM Tris-HCl (pH=8), and 4 mg/mL CLDS (SEQ ID NO: 4) were combined in a 6.80 mL reaction, which was incubated at 28° C. for 48 hours. This mixture was aliquoted into a 96-well plate (80 μL per well). The various prenyltransferases (18 μL, ˜1 g/L final concentration) listed above were screened across various substrates (2 μL of stock solution, variable concentration shown above), which were added to the wells and incubated at 28° C. for an additional 48 hours.
(§4) Analysis of the reaction mixture was carried out as follows: 50 μL of the reaction mixture were added to 1 mL MeOH. The resulting solution was vortexed, centrifuged at 17,200 g for 5 minutes, and transferred to an HPLC vial for analysis. HRMS-QTOF analyses of the cell free reactions was performed on an Agilent Technologies 6545 Accurate Mass QTOF LC/MS with a reverse-phase column (Agilent Infinity Lab Poroshell 120 ECC18, 2.7 μm, 3.0×50 mm) using positive ESI with 1% MeCN—H2O (0.1% FA) for 2 min followed by a linear gradient of 1-99% MeCN—H2O (0.1% FA) for 14 min with a flow rate of 0.4 mL/min.
(§5) Mass spectrometric (MS) analysis of chromatograms was carried out using MassHunter Qualitative Analysis 10.0. Targeted metabolomics using the exact m/z of the calculated proton adduct [H^+] in the presence and absence of prenyltransferase indicated the presence of cyclolavandulylated product.

[2] = cell-free cyclolavandulylation activity screening of prenyltransferases, substrate luteolin; details: cell-free reaction with CLDS and DMAPP (CLPP donor), 28° C., 48 hours, QTOF LC/MS, with vs without prenyltransferase
From the text: as §1, §2, §3, §4, §5

[3] = cell-free cyclolavandulylation activity screening of prenyltransferases, substrate naringenin; details: cell-free reaction with CLDS and DMAPP (CLPP donor), 28° C., 48 hours, QTOF LC/MS, with vs without prenyltransferase
From the text: as §1, §2, §3, §4, §5

[4] = cell-free cyclolavandulylation activity screening of prenyltransferases, substrate tryptamine; details: cell-free reaction with CLDS and DMAPP (CLPP donor), 28° C., 48 hours, QTOF LC/MS, with vs without prenyltransferase
From the text: as §1, §2, §3, §4, §5

[5] = cell-free cyclolavandulylation activity screening of prenyltransferases, substrate tryptophan; details: cell-free reaction with CLDS and DMAPP (CLPP donor), 28° C., 48 hours, QTOF LC/MS, with vs without prenyltransferase
From the text: as §1, §2, §3, §4, §5

[6] = cell-free cyclolavandulylation activity screening of prenyltransferases, substrate olivetolic acid; details: cell-free reaction with CLDS and DMAPP (CLPP donor), 28° C., 48 hours, QTOF LC/MS, with vs without prenyltransferase
From the text: as §1, §2, §3, §4, §5

[7] = cell-free cyclolavandulylation activity screening of prenyltransferases, summary over all tested substrates; details: any of the tested substrates; cell-free biosynthesis reaction with CLDS from Streptomyces sp. CL190 and DMAPP
From the text: as §1, §2, §3, §4, §5

[8] = cell-free cyclolavandulylation activity screening of prenyltransferases, substrate divarinic acid; details: cell-free reaction with CLDS and DMAPP (CLPP donor), 28° C., 48 hours, QTOF LC/MS, with vs without prenyltransferase
From the text: as §1
(§6) The cyclolavandulyl diphosphate synthase, CLDS was prepared as described in Example 1 and used in the synthesis of CLPP. […]
as §5

[9] = cell-free cyclolavandulylation activity screening of prenyltransferases, substrate phorolic acid; details: cell-free reaction with CLDS and DMAPP (CLPP donor), 28° C., 48 hours, QTOF LC/MS, with vs without prenyltransferase
From the text: as §1, §6, §5

[10] = cell-free cyclolavandulylation activity screening of prenyltransferases, substrate olivetol; details: cell-free reaction with CLDS and DMAPP (CLPP donor), 28° C., 48 hours, QTOF LC/MS, with vs without prenyltransferase
From the text: as §1, §6, §5

| Molecule | presence of cyclolavandulylated product, Aromatic Compound (Substrate) Resveratrol [1] | presence of cyclolavandulylated product, Aromatic Compound (Substrate) Luteolin [2] | presence of cyclolavandulylated product, Aromatic Compound (Substrate) Naringenin [3] | presence of cyclolavandulylated product, Aromatic Compound (Substrate) Tryptamine [4] | presence of cyclolavandulylated product, Aromatic Compound (Substrate) Tryptophan [5] | presence of cyclolavandulylated product, Aromatic Compound (Substrate) Olivetolic Acid [6] | cyclolavandulylation activity with tested aromatic compounds (summary of Table 7) [7] | presence of cyclolavandulylated product, Aromatic Compound (Substrate) Divarinic Acid [8] | presence of cyclolavandulylated product, Aromatic Compound (Substrate) Phorolic Acid [9] | presence of cyclolavandulylated product, Aromatic Compound (Substrate) Olivetol [10] |
| --- | --- | --- | --- | --- | --- | --- | --- | --- | --- | --- |
| B1 | No | No | No | No | Yes | No | produced a cyclolavandulylated aromatic compound |  |  |  |
| B2 | Yes | No | Yes | No | Yes | No | produced a cyclolavandulylated aromatic compound |  |  |  |
| B3 | Yes | No | No | No | No | Yes | produced a cyclolavandulylated aromatic compound | Yes | No | No |
| B4 | No | Yes | No | No | No | No | produced a cyclolavandulylated aromatic compound |  |  |  |
| B5 | No | No | No | No | No | Yes | produced a cyclolavandulylated aromatic compound |  |  |  |
| B6 | No | No | Yes | No | Yes | No | produced a cyclolavandulylated aromatic compound |  |  |  |
